Results reported in article PMC9342958.

B1: BCL10 full-length fused to mEos3.1 [human] / itself (parent)
chain: MEPTAPSLTEEDLTEVKKDALENLRVYLCEKIIAERHFDHLRAKKILSREDTEEISCRTSSRKRAGKLLDYLQENPKGLDTLVESIRREKTQNFLIQKITDEVLKLRNIKLEHLKGLKCSSCEPFPDGATNNLSRSNSDESNFSEKLRASTVMYHPEGESSTTPFFSTNSSLNLPVLEVGRTENTIFSSTTLPRPGDPGAPPLPPDLQLEEEGTCANSSEMFLPLRSRTVSRQ

Variants of: B1
Experiment: DAmFRET (Weibull fit) in yeast cells, homotypic self-assembly
Conditions: with itself; read off a plot

screen value | Variant
0.34 | MEPTAPSLTEEDLTEVKKDALENLRVYLCEKIIAERHFDHLRAKKILSREDTEEISCGTSSRKRAGKLLDYLQENPKGLDTLVESIRREKTQNFLIQKITDEVLKLRNIKLEHLKGLKCSSCEPFPDGATNNLSRSNSDESNFSEKLRASTVMYHPEGESSTTPFFSTNSSLNLPVLEVGRTENTIFSSTTLPRPGDPGAPPLPPDLQLEEEGTCANSSEMFLPLRSRTVSRQ [chain 1 R58G]
0.38 | MEPTAPSLTEEDLTEVKKDALENLRVYLCEKIIAERHFDHLRAKKILSREDTEEISCQTSSRKRAGKLLDYLQENPKGLDTLVESIRREKTQNFLIQKITDEVLKLRNIKLEHLKGLKCSSCEPFPDGATNNLSRSNSDESNFSEKLRASTVMYHPEGESSTTPFFSTNSSLNLPVLEVGRTENTIFSSTTLPRPGDPGAPPLPPDLQLEEEGTCANSSEMFLPLRSRTVSRQ [chain 1 R58Q]
0.35 | MEPTAPSLTEEDLTEVKKDALENLRVYLCEKIIAERHFDHLRAKKILSREDTEEISCLTSSRKRAGKLLDYLQENPKGLDTLVESIRREKTQNFLIQKITDEVLKLRNIKLEHLKGLKCSSCEPFPDGATNNLSRSNSDESNFSEKLRASTVMYHPEGESSTTPFFSTNSSLNLPVLEVGRTENTIFSSTTLPRPGDPGAPPLPPDLQLEEEGTCANSSEMFLPLRSRTVSRQ [chain 1 R58L]
